{
  "source": "patent US20210032294A1",
  "about": "“MODIFIED PlySs2 LYSINS AND USES THEREOF” (CONTRAFECT CORPORATION, priority 2018, published 2021)",
  "molecules": {"B1": {"name": "pp296: Modified PlySs2 lysin, SEQ ID NO: 6: L92W, V104S, V128T, Y137S, Y164K, N184D, S198Q (protein)", "chain": "MTTVNEALNNVRAQVGSGVSVGNGECYALASWYERMISPDATVGLGAGVGWVSGAIGDTISAKNIGSSYNWQANGWTVSTSGPFKAGQIVTWGATPGNPYGHVSIVEAVDGDRLTILEQNYGGKRYPTRNYYSAASSRQQVVHYITPPGTVAQSAPNLAGSRSKRETGTMTVTVDALNVRRAPDTSGEIVAVYKRGEQFDYDTAIIDVNGYAWVSYIGGSGKRNYVATGATKDGKRFGNAWGTFK"}},
  "test_system": "S. aureus isolate CFS-860",
  "test": "Mouse neutropenic thigh infection (MNTI) model",
  "assay_type": "in vivo, Staphylococcus aureus",
  "protocol": "The efficacy of four modified lysin polypeptides was compared to wild-type PlySs2 in a dose response (0-60 mg/kg) assay using a mouse neutropenic thigh infection (MNTI) model.\nBacterial inoculum was generated by allowing bacterial cells to grow to exponential phase in MHB until they reached an optical density (OD) of about 0.5 at 600 nm. The bacterial cells were thoroughly washed, resuspended in 0.9% sodium chloride USP, and diluted to an equivalent of 3.9×10^8 colony forming units (CFU)/mL. Cells were further diluted as described below in 0.9% sodium chloride USP and maintained on wet ice.\nNeutropenia was induced in female BALB/cByJ mice (5-7 weeks, Jackson Laboratories) by intraperitoneal (ip) administration of 150 mg/kg and 100 mg/kg of cyclophosphamide 4 and 1 days prior to inoculation of bacteria, respectively. Bacterial inoculum (S. aureus isolate CFS-860, 100 μl of 10^7 CFU/ml solution) was injected intramuscularly (IM) into both posterior thighs of each mouse. […] At 2 hours post-inoculation (Early Control) and 24 hours post-treatment initiation, animals were euthanized (CO2 asphyxiation), and the thighs were aseptically removed. Each thigh was weighed, placed into 4 ml sterile saline and homogenized in 7 ml lysing tubes using a Precellys24 high-throughput tissue homogenizer (Bertin Corp, Rockville, Md.). Dilutions of homogenate were plated on tryptic soy blood agar plates (Becton Dickinson) and incubated at 37° C. overnight in a CO2 incubator. Bacterial burden was enumerated and expressed as log 10 CFU/g of thigh weight and compared to control animals harvested at 2 hours post infection (Early Control) and animals treated with vehicle (Late Control).\nThe data representing mouse thigh bacterial burden are depicted in FIG. 2. The upper dot on the y-axis is vehicle alone, and the lower dot on the y-axis is the Early Control. pp1149 is in fact also a wild-type lysin over-expressed and purified in the laboratory along with the other modified lysin polypeptides and used as an additional positive control.",
  "data": [
    {"molecule": "B1", "values": [
      {"measurement": "Performance in MNTI at lower doses", "setting": "0.5 mg/kg", "result": "performed comparably to wild type"},
      {"measurement": "Bactericidal efficacy (thigh bacterial burden) versus wild type", "setting": "neutropenic BALB/cByJ mice, intravenous, dose response, 24 hours", "result": "activity comparable to wild-type PlySs2 lysin"},
      {"measurement": "Bactericidal efficacy at the lowest dose used", "setting": "neutropenic mice, intravenous, 5 mg/kg", "result": "comparable to that of wild-type PlySs2 lysin"}
    ]}
  ]
}
